The values that follow come from patent US20090203041A1, “BMP4 INHIBITORS” (priority 2006, published 2009).

Entries after “also recorded” stand apart in the source; their conditions may differ.

Assay [1] deals with T1, BMP4 (Homo sapiens, UniProt P12644).
T1 sequence (P12644 293-408): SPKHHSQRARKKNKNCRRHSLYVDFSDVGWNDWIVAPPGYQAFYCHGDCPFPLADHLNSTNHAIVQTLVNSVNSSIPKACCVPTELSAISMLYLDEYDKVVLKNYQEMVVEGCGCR
The assay is described as follows: BMP4-induced C2C12 cell differentiation assay, peptide preincubated with BMP4. It counts as cell-based. The note with it: peptide 5 μm preincubated with BMP4 100 ng/mL; C2C12 cells, ALP activity. As to the method: (§1) To test whether exogenous expression of Gremlin can inhibit the activity of exogenously expressed BMP4, the activity of BMP4 secreted into the CM was measured by its effect on mouse myoblast C2C12 cell differentiation into osteoblasts. C2C12 cells were grown in 96-well plate until 90% confluence. Agents (100 ng/ml BMP4 or equivalent amounts of concentrated conditioned medium) were then added into the culture medium (Dulbecco's modified Eagle's medium with 5% fetal bovine serum) and the cells were cultured for 3 days. The cells were then lysed with 0.1% Triton X-100, and the alkaline phosphatase (ALP) activity in the cell lysate was quantified by adding substrate p-nitrophenyl phosphate and measuring absorbance at A405. Triplicate measurements were preformed for every sample. Conditioned media from cells transfected with control, Myc-BMP4, GRE-HA, or Myc-BMP4 and GRE-HA were assayed for BMP4 activity.
The function of the 30 amino acid Gremlin motif in mediating interaction between Gremlin and BMP4 and BMP4 inhibitor activity was assayed by the BMP4-induced C2C12 cell differentiation assay. A linear peptide corresponding to the mapped amino acid sequence (145-174) was synthesized by Genscript (Scotch Plains, N.J.).

For assay [2], the target named is Myc-tagged mouse BMP4 (Myc-BMP4) (mouse) (UniProt P21275). The assay is described as follows: cell-based or functional assay.
The target in assay [3] is T2, BMP4 (Mus musculus, UniProt P21275).
T2 construct: mature but no precursor BMP4 was detected in the concentrated CM; expressed in transfected cells; host or cells: COS-1 cells (conditioned medium applied to C2C12 cells)
T2 sequence (P21275 with tags, fused parts or gaps): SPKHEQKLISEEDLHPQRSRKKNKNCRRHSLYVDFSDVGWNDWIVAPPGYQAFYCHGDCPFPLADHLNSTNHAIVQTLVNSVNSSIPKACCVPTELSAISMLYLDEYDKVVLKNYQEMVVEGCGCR
The assay is described as follows: BMP4-stimulated C2C12 cell differentiation assay (alkaline phosphatase activity) with conditioned medium of transfected COS-1 cells. It counts as cell-based. The settings on record: C2C12 ALP activity. Here is the method:
(§2) To test whether exogenous BMP4 and Gremlin physically interact intracellularly, Myc-BMP4 and GRE-HA were co-transfected into COS-1 cells using Lipofectamine Plus (Invitrogen). Transfected cells were first cultured in medium containing 10% fetal calf serum for 20 hours and then cultured in serum-free conditioned medium (CM) for an additional 48 hours, and experiments were repeated at least three times.
as §1
CM collected separately from cells transfected with Myc-BMP4 or GRE-HA was mixed and preincubated for 1 hour before adding to C2C12 cells (1). COS-1 cells were transfected separately with Myc-BMP4 or GRE-HA, trypsinized and co-cultured during CM collection (2).

Another assay addresses T3, Myc-BMP4 (Mus musculus, UniProt P21275, INS296EQKLISEEDL).
T3 construct: expressed in transfected cells; host or cells: COS-1 cells
T3 sequence (P21275 with tags, fused parts or gaps limits assumed): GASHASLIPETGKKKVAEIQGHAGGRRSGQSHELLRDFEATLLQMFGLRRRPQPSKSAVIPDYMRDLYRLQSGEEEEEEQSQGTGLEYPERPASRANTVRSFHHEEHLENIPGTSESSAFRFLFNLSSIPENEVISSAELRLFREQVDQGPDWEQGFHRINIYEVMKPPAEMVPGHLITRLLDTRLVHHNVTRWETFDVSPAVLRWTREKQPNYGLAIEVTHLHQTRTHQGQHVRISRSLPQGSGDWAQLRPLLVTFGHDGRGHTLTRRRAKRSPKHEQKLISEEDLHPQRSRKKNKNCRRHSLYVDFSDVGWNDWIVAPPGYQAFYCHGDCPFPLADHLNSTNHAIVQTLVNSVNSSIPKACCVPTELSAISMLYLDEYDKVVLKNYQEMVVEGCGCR
The assay is described as follows: Co-immunoprecipitation of Myc-BMP4 with HA-tagged Gremlin proteins co-expressed in COS-1 cells (anti-HA IP, anti-Myc Western blot). The note with it: co-transfected COS-1 cells. It counts as binding. As to the method:
as §2
To determine the specificity of BMP4-Gremlin binding and the molecular motif of Gremlin that is responsible for the intermolecular interaction, two truncated Gremlin molecules, GRE-DAN-HA and GRE-NF-HA, were generated with truncation of the NH2-terminal fragment (NF) or the carboxyl-terminal DAN domain (DAN), respectively, as diagramed in FIG. 6A (amino acid positions are in reference to SEQ ID NO:4). The two truncated Gremlin molecules were co-transfected with Myc-BMP4 into COS-1 cells, and immunoprecipitation was performed with anti-HA antibodies.
Partial cDNA of mouse Mucin-2, which encodes a Mucin-2 protein fragment of 114 amino acids on the carboxyl terminus (PQNQ . . . LGRK, GenBank™ accession number XP—620590) was generated by high fidelity RT-PCR (Pfu, Stratagene) and verified by DNA sequencing. An HA epitope was also added to the carboxyl terminus of Mucin-2 by inverted PCR. A variety of Gremlin-Mucin-2 chimeric cDNA constructs were created by inverted PCR in combination with restricted digestion and ligation of PCR products. The Gremlin-Mucin-2 chimeras generated are as diagrammed in FIG. 7B. These HA-epitope tagged Gremline-Mucin-2 chimera proteins were co-expressed with Myc-BMP in COS-1 cells by transient transfection. The BMP4 binding activities and inhibitory activities were evaluated by immunoprecipitation and BMP4-stimulated C2C12 cell differentiation assay as described in Examples 3 and 4. The results for the Gremlin-Mucin-2 chimeras are seen in FIGS. 8A and 8B.

“PKKFTTMMVTLNCPELQPPTKKKRVTRVKQ (listed as Homo sapiens) [linear peptide]”: the “inhibition of BMP4 activities” value with BMP4 [1] came to 56±10%.

B1: HA-tagged mouse Gremlin (GRE-HA) (protein, not shown: small tags and cut ends)
chain: KKKGSQGAIPPPDKAQHNDSEQTQSPPQPGSRTRGRGQGRGTAMPGEEVLESSQEALHVTERKYLKRDWCKTQPLKQTIHEEGCNSRTIINRFCYGQCNSFYIPRHIRKEEGSFQSCSFCKPKKFTTMMVTLNCPELQPPTKKKRVTRVKQCRCISIDLD
On to B1, for which, in assay [2], the inhibition of BMP4 activity (alkaline phosphatase activity, C2C12 cell differentiation assay); CM of Myc-BMP4 cells mixed with an equal amount of CM of GRE-HA cells was 20%; the inhibition of BMP4 activity (alkaline phosphatase activity, C2C12 cell differentiation assay); CM of cells co-transfected with Myc-BMP4 and GRE-HA was 86%; the inhibition of BMP4 activity (alkaline phosphatase activity, C2C12 cell differentiation assay); CM of co-cultured cells transfected separately with Myc-BMP4 or GRE-HA stood at 55%.

B2: GRE-HA: HA-epitope tagged mouse Gremlin, full length, expressed by transfection (protein)
chain: KKKGSQGAIPPPDKAQHNDSEQTQSPPQPGSRTRGRGQGRGTAMPGEEVLESSQEALHVTERKYLKRDWCKTQPLKQTIHEEGCNSRTIINRFCYGQCNSFYIPRHIRKEEGSFQSCSFCKPKKFTTMMVTLNCPELQPPTKKKRVTRVKQCRCISIDLD
modifications: left off: small tags and cut ends
B2 showed a BMP4 inhibitory effect in the assay with BMP4 [3] (CM from COS-1 cells transfected separately with Myc-BMP4 or GRE-HA and co-cultured during CM collection) of 55±5%. The BMP4 activity inhibited with BMP4 [3] (CM of Myc-BMP4 transfected cells plus equal amount of CM from GRE-HA transfected cells, mixed and preincubated 1 hour) is on record as 20±9%; in the assay with BMP4 [3] (cells co-transfected with Myc-BMP4 and GRE-HA, p<0.05), 86±4%. Further, the “BMP4 binding (co-immunoprecipitation of Myc-BMP4)” value (shortened to “BMP4 binding”) with Myc-BMP4 is “Myc-BMP4 precursor was found in the cell lysate; also recorded: retained its BMP4 binding activity”.

B3: GRE-NF-HA: truncated HA-tagged Gremlin with the carboxyl-terminal DAN domain deleted (protein)
chain: KKKGSQGAIPPPDKAQHNDSEQTQSPPQPGSRTRGRGQGRGTAMPGEEVLESSQEALHVTERKYLKRDW
modifications: left off: small tags and cut ends
notes: truncated HA-tagged Gremlin with the carboxyl-terminal DAN domain deleted
On to B3, for which, in the assay with Myc-BMP4, the “BMP4 binding” value is “completely abolished”.

B4: GRE-DAN-HA: truncated HA-tagged Gremlin with the NH2-terminal fragment deleted (protein)
chain: CKTQPLKQTIHEEGCNSRTIINRFCYGQCNSFYIPRHIRKEEGSFQSCSFCKPKKFTTMMVTLNCPELQPPTKKKRVTRVKQCRCISIDLD
modifications: left off: small tags and cut ends
notes: truncated HA-tagged Gremlin with the NH2-terminal fragment deleted
Take B4: in the assay with Myc-BMP4, the “BMP4 binding” value is given as “retained its BMP4 binding activity”.
